Data reported in patent US20080032921A1.

Columns and labels:
[1] = biological target: HLA-DR DRB1*0101 (human); assay: competition with 125I-labelled reference peptide on purified HLA-DR
[2] = biological target: HLA-DR DRB1*0401 (human); assay: as above
[3] = biological target: HLA-DR DRB1*1302 (human); assay: as above
[4] = biological target: HLA-DR DRB1*1501 (human); assay: as above
[5] = biological target: HLA-DR DRB4*0101 (human); assay: as above
[6] = biological target: purified HLA-DR molecule DRB1*0101 (human); assay: competition with 125I-labelled peptide for purified HLA
[7] = biological target: purified HLA-DR molecule DRB1*0301 (human); assay: as above
[8] = biological target: purified HLA-DR molecule DRB1*0401 (human); assay: as above
[9] = biological target: purified HLA-DR molecule DRB1*0404 (human); assay: as above
[10] = biological target: purified HLA-DR molecule DRB1*0405 (human); assay: as above
[11] = biological target: purified HLA-DR molecule DRB1*1302 (human); assay: as above
[12] = biological target: HLA-DR DRB1*0101 (human); assay: competition vs 125I-labeled peptide, purified HLA
[13] = biological target: HLA-DR DRB1*0401 (human); assay: competition vs 125I-labeled peptide, purified HLA
[14] = biological target: HLA-DR DRB1*1302 (human); assay: competition vs 125I-labeled peptide, purified HLA
[15] = biological target: HLA-DR DRB1*1501 (human); assay: competition vs 125I-labeled peptide, purified HLA
[16] = biological target: HLA-DR DRB4*0101 (human); assay: competition vs 125I-labeled peptide, purified HLA
[17] = biological target: HLA-DR DRB1*0101 (human); assay: competition with 125I-labeled reference peptide, purified HLA
[18] = biological target: HLA-DR DRB1*0301 (human); assay: as above
[19] = biological target: HLA-DR DRB1*0401 (human); assay: as above
[20] = biological target: HLA-DR DRB1*0405 (human); assay: as above
[21] = biological target: HLA-DR DRB1*1302 (human); assay: as above
[22] = biological target: HLA-DR DRB1*0404 (human); assay: as above
[23] = biological target: purified HLA-DR DRB1*0101 (human); assay: competition with 125I-labelled reference peptide, purified HLA
[24] = biological target: purified HLA-DR DRB1*0301 (human); assay: as above
[25] = biological target: purified HLA-DR DRB1*0401 (human); assay: as above
[26] = biological target: purified HLA-DR DRB1*1302 (human); assay: as above
[27] = biological target: HLA-DR DRB1*0301 (human); assay: competition vs 125I-labeled peptide, purified HLA
[28] = biological target: purified HLA-DR DRB1*0404 (human); assay: competition with 125I-labelled reference peptide, purified HLA
[29] = biological target: purified HLA-DR DRB1*0405 (human); assay: as above

RTFFLTQGALLNDKHS (modifications not checked) [Flu.NA.110 peptide …]
IC50 [1]: 16 nM
IC50 [2]: 251 nM
IC50 [3]: 3200 nM
IC50 [4]: 790 nM
IC50 [5]: 2320 nM

QRGILEDEQMYQKCC (modifications not checked) [… (Flu.PB1.682)]
IC50 [6]: 433 nM
IC50 [7]: 34 nM
IC50 [8]: 2560 nM
IC50 [9]: 3270 nM
IC50 [10]: 700 nM
IC50 [11]: 10900 nM

IYQILSIYSTVASSLA (modifications not checked) [Flu.HA.529]
IC50 [12]: 55 nM
IC50 [13]: 89 nM
IC50 [14]: 13 nM
IC50 [15]: 4.7 nM
IC50 [16]: 18 nM

SIWIELDEIGEDVAP (modifications not checked) [Flu.PA.423]
IC50 [17]: 13400 nM
IC50 [18]: 59 nM
IC50 [19]: 5400 nM
IC50 [20]: > 10000 nM
IC50 [21]: > 10000 nM

NGTVKDRSPHRTLMS (modifications not checked) [Flu.NA.126 peptide …]
IC50 [1]: 581 nM
IC50 [2]: 17900 nM
IC50 [3]: 7930 nM
IC50 [4]: 267 nM
IC50 [5]: 8880 nM

KYPITADKRIMEMIP (modifications not checked) [… (Flu.PB2.57)]
IC50 [7]: 48 nM
IC50 [8]: 9390 nM
IC50 [9]: 2290 nM
IC50 [11]: 68 nM

PTTYISVGTSTLNQRL (modifications not checked) [Flu.HA.210]
IC50 [12]: 190 nM
IC50 [13]: 59 nM
IC50 [14]: 957 nM
IC50 [15]: 1720 nM
IC50 [16]: 522 nM

MEWLKTRPILSPLTK (modifications not checked) [Flu.M1.46]
IC50 [12]: 52 nM
IC50 [13]: 528 nM
IC50 [14]: 3880 nM
IC50 [15]: 111 nM
IC50 [16]: 7940 nM

EALMEWLKTRPILSP (modifications not checked) [Flu.M1.43]
IC50 [12]: 9.5 nM
IC50 [13]: 891 nM
IC50 [14]: 380 nM
IC50 [15]: 18 nM
IC50 [16]: 5510 nM

LKQYDSDEPELRSLS (modifications not checked) [Flu.PA.393]
IC50 [17]: 17700 nM
IC50 [18]: 88 nM
IC50 [19]: 7260 nM
IC50 [22]: 5800 nM
IC50 [20]: > 10000 nM
IC50 [21]: > 10000 nM

FNPMIVELAEKTMKE (modifications not checked) [Flu.PA.12]
IC50 [17]: 48 nM
IC50 [18]: 744 nM
IC50 [19]: 29 nM
IC50 [22]: 610 nM
IC50 [20]: 1240 nM
IC50 [21]: 1250 nM

FLILGKEDRRYGPAL (modifications not checked) [Flu.PB2.697]
IC50 [23]: 8390 nM
IC50 [24]: 565 nM
IC50 [25]: 1740 nM
IC50 [26]: 118 nM

QLLLEVEQEIRTFSF (modifications not checked) [Flu.NS2.180]
IC50 [17]: 11900 nM
IC50 [18]: 792 nM
IC50 [19]: 13900 nM
IC50 [22]: 1600 nM
IC50 [20]: 5140 nM
IC50 [21]: 13200 nM

CPKYVKSNRLVLATGL (modifications not checked) [Flu.HA.318]
IC50 [12]: 2760 nM
IC50 [27]: 2920 nM
IC50 [13]: 868 nM
IC50 [14]: 48 nM
IC50 [15]: 230 nM
IC50 [16]: 287 nM

AMVFSQEDCMIKAVR (modifications not checked) [Flu.PB2.404]
IC50 [23]: 11000 nM
IC50 [24]: 718 nM
IC50 [25]: 3280 nM
IC50 [28]: 336 nM
IC50 [29]: 6780 nM
IC50 [26]: 9200 nM

ALQLLFEVEQEIRTF (modifications not checked) [Flu.NS2.178]
IC50 [17]: 3490 nM
IC50 [18]: 403 nM
IC50 [19]: 10300 nM
IC50 [22]: 2150 nM
IC50 [20]: 8870 nM
IC50 [21]: > 10000 nM

IGNMISIWVSHSIHTG (modifications not checked) [Flu.NA.26 peptide …]
IC50 [1]: 1050 nM
IC50 [2]: 925 nM
IC50 [3]: 5950 nM
IC50 [4]: 81 nM
IC50 [5]: 817 nM

GGEVRNDDVDQSLII (modifications not checked) [… (Flu.PB2.250)]
IC50 [7]: 347 nM
IC50 [8]: 2160 nM
IC50 [9]: 458 nM
IC50 [11]: 2500 nM

VVWLIKKNSTYPTIKR (modifications not checked) [Flu.HA.163]
IC50 [12]: 464 nM
IC50 [13]: 289 nM
IC50 [14]: 14 nM
IC50 [15]: 99 nM
IC50 [16]: 1660 nM

ILSIYSTVASSLALAI (modifications not checked) [Flu.HA.532]
IC50 [12]: 11 nM
IC50 [13]: 91 nM
IC50 [14]: 7.6 nM
IC50 [15]: 20 nM
IC50 [16]: 824 nM

RVVVSIDRFLRVRDQ (modifications not checked) [Flu.PB2.496]
IC50 [23]: 1860 nM
IC50 [24]: 67 nM
IC50 [25]: 111 nM
IC50 [28]: 400 nM
IC50 [29]: 2050 nM
IC50 [26]: 8.1 nM

PVHFRNQVKIRRRVD (modifications not checked) [… (Flu.PB2.135)]
IC50 [6]: 2970 nM
IC50 [7]: 458 nM
IC50 [8]: 1300 nM
IC50 [9]: 5980 nM
IC50 [10]: 6040 nM
IC50 [11]: 359 nM

RGILEDEQMYQKCCN (modifications not checked) [… (Flu.PB1.683)]
IC50 [6]: 199 nM
IC50 [7]: 43 nM
IC50 [8]: 5740 nM
IC50 [9]: 10500 nM
IC50 [10]: 3280 nM
IC50 [11]: 18000 nM

NLEYQIGYICSGVFG (modifications not checked) [Flu.NA.289 peptide …]
IC50 [1]: 1130 nM
IC50 [2]: 975 nM
IC50 [3]: 41 nM
IC50 [4]: 13 nM
IC50 [5]: 354 nM

LLVLMENERTLDFHD (modifications not checked) [Flu.HA.444]
IC50 [27]: 64 nM

VSKMGVDEYSSTERV (modifications not checked) [Flu.PB2.483]
IC50 [24]: 1020 nM
IC50 [26]: 1850 nM

LRNLMSQSRTREILT (modifications not checked) [LRNLMS1SRTREILT (Flu.PB2.10)]
IC50 [6]: 613 nM
IC50 [7]: 978 nM
IC50 [8]: 4970 nM
IC50 [9]: 170 nM
IC50 [10]: 9690 nM
IC50 [11]: 5.4 nM

MVAYMLERELVRKTR (modifications not checked) [… (Flu.PB2.205)]
IC50 [6]: 97 nM
IC50 [7]: 878 nM
IC50 [8]: 166 nM
IC50 [9]: 499 nM
IC50 [10]: 5540 nM
IC50 [11]: 2080 nM

TRPILSPLTKGILGF (modifications not checked) [Flu.M1.51]
IC50 [12]: 423 nM
IC50 [14]: 292 nM
IC50 [15]: 140 nM
IC50 [16]: 192 nM

VAVLKYNGIITDTIKSW (modifications not checked) [Flu.NA.183 peptide …]
IC50 [1]: 3390 nM
IC50 [2]: 319 nM
IC50 [3]: 169 nM
IC50 [4]: 19 nM
IC50 [5]: 289 nM

RNYFTAEVSHCRATE (modifications not checked) [Flu.PA.446]
IC50 [17]: 627 nM
IC50 [18]: 883 nM
IC50 [19]: 45 nM
IC50 [22]: 7600 nM
IC50 [20]: 5720 nM
IC50 [21]: > 10000 nM
